± gives the uncertainty stated by the source.

This data set can be described thus: amyloid nucleation score (Sup35N fusion, yeast selection) (log enrichment); library NNK2; higher = more nucleation; inactive = no reads after selection. The method in brief:
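Nucleation score: DiMSum log enrichment of output over input reads, centred on the mode score of non-aggregating sequences. Only sequences with at least 100 input reads were kept. Reads came from Illumina sequencing of plasmid inserts before and after 7 days of growth at 30°C without adenine and uracil, in psi-negative yeast expressing Sup35N fused to peptides of 20 random codons after 24 hours of induction with 100 μM copper sulfate.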
With KYRTYPGVGIIGRVDSSLRT, the amyloid nucleation score is 0.741 ± 0.51.
Consider KYSNVTCWFSDHLGWRFHTF, for which the amyloid nucleation score result was “inactive”.
LAFRFDVLKWINA had an amyloid nucleation score of -0.263 ± 0.27.
As for LAGYNFLKETRDMVTIMAYE, the entry is “inactive”; as for LAHETLCLDTYRDPW, -1.54 ± 1; as for LAMLRS, 1.17 ± 0.34.
As for LAPPKKAFISVKMSLDRYCV, the amyloid nucleation score was -0.305 ± 0.26.
The substance LAPVYEFEVWIHGIRGRCAW displayed an amyloid nucleation score of 4.18 ± 0.065.
LAQPCQE returned an amyloid nucleation score of -0.033 ± 0.55.
The substance LAQQRPLRQRTMRHGSRFTA yielded an amyloid nucleation score of 0.671 ± 0.43.
Take LAQRSNFRASCWINFLGWLD: the amyloid nucleation score entry was “inactive”.
As for LASHVVWTDKN, the figure is 6.635 ± 0.041; as for LATLVNCCTIVNRSNFGIMH, 6.985 ± 0.061; as for LCASHIYL, 0.087 ± 0.79.
Consider LCERYWKALK, for which the amyloid nucleation score entry was “inactive”.
In turn, LCFFT showed an amyloid nucleation score of 0.383 ± 0.74.
As for LCFMF, the amyloid nucleation score turned out to be 0.4 ± 0.51.
The result for LCGHSNTAVWARHPEYSLVS reads “inactive”; that for LCHLVFVVSDWRQRLRVFTV, 4.37 ± 0.05.
Substance LCLELFKQSVQFGLC gave an amyloid nucleation score of 0.325 ± 0.35.
The result for LCLTR reads -0.307 ± 0.63.
As for LCNSEIFNMANISMS, the amyloid nucleation score was 0.498 ± 0.19.
For the substance LCNSTNSESIIVLDITALTH, the amyloid nucleation score is 0.405 ± 0.51.
For LCQNKTMTIGRFKIGHKWYP, the amyloid nucleation score came to 0.004 ± 1.1.
Turning to LCRNSSVFRCSGK, the amyloid nucleation score came to 0.311 ± 0.17.
The result for LCSRFALWVRKF reads -0.291 ± 0.63.
LCSSKETDMPFLVLQSLKSN gave an amyloid nucleation score of -0.791 ± 0.78.
In turn, LCVYMFT showed an amyloid nucleation score of 3.51 ± 0.12.
The result for LCWEVRTLEFIGFTQSYGKG reads -0.005 ± 0.33; that for LCYGFEYHVDGLYNVSYESS, 0.298 ± 0.37.
LDAGCRMYWGVRLEFRICNL: the amyloid nucleation score came to 4.79 ± 0.062.
As for LDDPCSHYILGSGHDHVLRR, the amyloid nucleation score amounted to 0.697 ± 0.81.
LDGITSIDG: the amyloid nucleation score was -1.15 ± 0.74.
Substance LDIYYMMYYFRFSWD showed an amyloid nucleation score of -2.64 ± 0.75.
LDLALSQH returned an amyloid nucleation score of 1.54 ± 0.53.
Turning to LDLNFEWFW, the amyloid nucleation score result is “inactive”.
The substance LDPSVLMLWLFYRVQSLHVS yielded an amyloid nucleation score of 0.008 ± 0.35.
LDSSYY: the amyloid nucleation score result is “inactive”.
As for LDWAWACSWVVA, the amyloid nucleation score amounted to 0.389 ± 0.8.
LEMCVLR registered an amyloid nucleation score of 0.23 ± 0.45.
As for LEPGAFRSIVFRIND, the amyloid nucleation score amounted to 0.961 ± 0.48.
The substance LEQFYCTMGSSFNMNGGMVI had an amyloid nucleation score of -0.436 ± 0.29.
LERNSMPITVSWSGFEGLKG had an amyloid nucleation score of -0.295 ± 0.65.
Consider LFACFRNMLV, for which the amyloid nucleation score is 0.504 ± 0.39.
In turn, LFAYCMDSHLHTTSKFILTL registered an amyloid nucleation score of 0.047 ± 0.5.
The result for LFFYTYWC reads “inactive”; that for LFGVYMLQVCVKNSKLSRSE, -0.133 ± 1.
In the case of LFINNDTNDNYH, the amyloid nucleation score was -1.18 ± 0.47.
Substance LFKCVSTGHYLLTFRVVVYG had an amyloid nucleation score of -0.456 ± 0.39.
Regarding LFKRGIVGDRGTKG, the amyloid nucleation score is -0.905 ± 0.48.
On to LFLQVGTAVGIRYINGAYLV, for which the amyloid nucleation score is -0.959 ± 0.38.
The result for LFLTHPARWSSNLRRLL reads 0.069 ± 0.3; that for LFMFGFGIL, 0.05 ± 0.42.
Substance LFMPGSFFDIFE came in with an amyloid nucleation score of -2.05 ± 0.78.
Substance LFMRPCDLFEVVLSTVRLVW yielded an amyloid nucleation score of 1.29 ± 0.52.
In turn, LFNVMLCMP came in with an amyloid nucleation score of 4.17 ± 0.048.
In turn, LFRCELSLGRHMGFLDWEWG gave an amyloid nucleation score of 0.201 ± 0.38.
The substance LFRFYCMIANCIVLQN gave an amyloid nucleation score of 4.93 ± 0.045.
Take LFRLSCIALCVGIIIVSDGV: the amyloid nucleation score was -0.33 ± 0.79.
With LFRSHSCVCTLVKQ, the amyloid nucleation score was -0.008 ± 0.46.
As to LFRVMILC, the amyloid nucleation score is -0.239 ± 0.42.
As for LFSLTGIKLE, the figure is -0.483 ± 1.1; as for LFSSQLTATVRVPMSRNGLW, 7.088 ± 0.031; as for LFTEISKYQVYGVYWTALFE, -0.137 ± 1.1.
LFTVYFKK: the amyloid nucleation score is -0.6 ± 0.63.
For LFVCNSMP, the amyloid nucleation score came out at 0.35 ± 0.8.
As for LFVHYFSVGYSHLLCRDCTS, the figure is 3.23 ± 0.1; as for LFYAAEYKLCMEV, -0.857 ± 0.41.
The result for LFYRYFLCVTRRTNEYGVL reads -1.75 ± 1; that for LGDAHALCGRLTVCRGGTGP, 3.58 ± 0.075.
Turning to LGFFKSGVVH, the amyloid nucleation score result was “inactive”.
In the case of LGFWL, the amyloid nucleation score was -1.31 ± 0.41.
For LGGLSDVFQNRPLMTYGAWS, the amyloid nucleation score was -0.303 ± 0.35.
In the case of LGIKRNQI, the amyloid nucleation score is -0.812 ± 0.45.
With LGIYVFAFKRMVNMEDLYTR, the amyloid nucleation score is -1.05 ± 0.41.
The substance LGNTRSIWGE had an amyloid nucleation score of 0.578 ± 0.27.
Substance LGPAYYYHNYLNLRGLSSGM yielded an amyloid nucleation score of 0.504 ± 0.74.
The substance LGPLVYFLFVNIPNQGFFLC gave an amyloid nucleation score of 1.56 ± 0.16.
For LGRWASGTAG, the amyloid nucleation score came to 0.558 ± 0.57.
LGSVVSTPFCYSMFRTFKKH displayed an amyloid nucleation score of 0.109 ± 0.27.
As for LGVESTCRSWFMFLGTQRIA, the figure is -0.342 ± 1.
LGWINKWKRLSNIPIAKWHC: the amyloid nucleation score result was “inactive”.
Take LGYGRWCKVARPEYESGLTM: the amyloid nucleation score came out at 0.042 ± 1.1.
With LHAIHSFDWPTSLIVYHP, the amyloid nucleation score entry was “inactive”.
LHFQYERSWNARSTLM: the amyloid nucleation score came to 4.08 ± 0.076.
Regarding LHFSGFTKFRFIMVFGKKVC, the amyloid nucleation score was -1.24 ± 0.49.
The result for LHGVSAIMLGTIGARVN reads -0.125 ± 0.49; that for LHIKW, 5.728 ± 0.033.
As for LHKISIGKCSRCSCRNTFGE, the figure is -0.171 ± 1; as for LHLEMTEW, “inactive”.
As for LHNMNWPLFVLVACLVDIPT, the figure is -0.724 ± 0.42; as for LHPLVSLVVHTFMPEVRLVL, “inactive”.
For LHRKWFGYGCTCSWIGWEEW, the amyloid nucleation score is -0.002 ± 0.48.
LHSRFL had an amyloid nucleation score of 0.236 ± 1.1.
As for LHTLVALINACRNASGSVHD, the figure is 0.167 ± 0.65; as for LIAGYDAWWSSKMSRHKVSV, -0.232 ± 0.27.
Consider LICAL, for which the amyloid nucleation score was determined as 0.61 ± 0.39.
The substance LICSHTLIRVYVKFF registered an amyloid nucleation score of 1.16 ± 0.3.
In turn, LIDNFS gave an amyloid nucleation score of -0.351 ± 0.45.
LIFGAKLESGYASVEFSDSD showed an amyloid nucleation score of -0.347 ± 1.
On to LIGAATSKNVIRCNGWDGDQ, for which the amyloid nucleation score turned out to be 0.848 ± 0.57.
The result for LIGDSLSVVRNRNFPPARGK reads -0.237 ± 1; that for LIGEVAYFICHFSKVVARLF, 2.06 ± 0.075.
With LIIQRLEGAF, the amyloid nucleation score was -0.245 ± 0.32.
Substance LIKVVVMS displayed an amyloid nucleation score of 1.04 ± 0.42.
Take LILLFLTAQRLCLVSDEESE: the amyloid nucleation score was -0.409 ± 0.41.

The values are drawn from the supplement of paper PMC12042874.
